Where two headings read alike, the source gives them in different places.
Assays:
Assay in all cases: 125I-probe competition, purified HLA
HLA A0301 (human) = target: HLA A0301 (human)
HLA A1101 (human) = target: HLA A1101 (human)
HLA A3101 (human) = target: HLA A3101 (human)
HLA A6801 (human) = target: HLA A6801 (human)
HLA A2302 (human) = target: HLA A2302 (human)
HLA A2402 (human) = target: HLA A2402 (human)
HLA A0101 (human) = target: HLA A0101 (human)
HLA A2601 (human) = target: HLA A2601 (human)
HLA A2902 (human) = target: HLA A2902 (human)
HLA A3002 (human) = target: HLA A3002 (human)
HLA A0201 (human) = target: HLA A0201 (human)
HLA A0202 (human) = target: HLA A0202 (human)
HLA A0203 (human) = target: HLA A0203 (human)
HLA A0206 (human) = target: HLA A0206 (human)
HLA A6802 (human) = target: HLA A6802 (human)
[1] = remark: other sources report otherwise

| Binder | IC50 (HLA A2302 (human)) [nM] | IC50 (HLA A2402 (human)) [nM] | IC50 (HLA A0101 (human)) [nM] | IC50 (HLA A2902 (human)) [nM] | IC50 (HLA A3002 (human)) [nM] | also measured |
| --- | --- | --- | --- | --- | --- | --- |
| KQGAMLAVFK (modifications not checked) [HPV18.E1.210] | – | – | – | – | – | IC50 (HLA A0301 (human)): 35 nM; IC50 (HLA A1101 (human)): 11 nM; IC50 (HLA A3101 (human)): 519 nM; IC50 (HLA A6801 (human)): 235 nM |
| VYDFAFRDLCI (modifications not checked) [HPV16.E6.49] | 8.9 | 22 | – | – | – | – |
| QVDYYGLYY (modifications not checked) [HPV16.E2.151] | – | – | 2.7 | 25 | 160 | IC50 (HLA A2601 (human)): 251 nM |
| VFTFPHAFPF (modifications not checked) [HPV45.E1.578] | 15.9 | 90.4 | – | 57 | – | – |
| MYVCCHVPL (modifications not checked) [HPV18.E5.14] | 24 | 15 | – | – | 4720 | – |
| QVVPAYNISK (modifications not checked) [HPV18.E2.61] | – | – | – | – | – | IC50 (HLA A0301 (human)): 308 nM; IC50 (HLA A1101 (human)): 14 nM; IC50 (HLA A3101 (human)): 6660 nM; IC50 (HLA A6801 (human)): 8 nM |
| ATCVSHRGLY (modifications not checked) [HPV18.E2.154] | – | – | 421 | 4210 | 28 | IC50 (HLA A2601 (human)): 646 nM |
| LSQMVQWAY (modifications not checked) [HPV16/31.E1.357] | – | – | 21 | 122 | 0.93 | IC50 (HLA A2601 (human)): 6450 nM |
| VYGTTLEKL (modifications not checked) [HPV31.E6.83] | 8.2 | 26 | – | – | 1240 | – |
| GYNTFYIEF (modifications not checked) [HPV18.E2.168] | 13 | – | – | 835 | 1260 | – |
| STVSVGTAK (modifications not checked) [HPV18.E2.230] | – | – | – | – | – | IC50 (HLA A0301 (human)): 34 nM; IC50 (HLA A1101 (human)): 6 nM; IC50 (HLA A3101 (human)): 1760 nM; IC50 (HLA A6801 (human)): 10 nM |
| GTGCNGWFY (modifications not checked) [HPV18/31.E1.11] | – | – | 136 | 116 | 9.1 | IC50 (HLA A2601 (human)): 3080 nM |
| ELDPVDLLCY (modifications not checked) [HPV45.E7.20] | – | – | 26 | 4290 | – | IC50 (HLA A2601 (human)): 2110 nM |
| CLYLHIQSL (modifications not checked) [HPV16.E1.259] | – | – | – | – | – | IC50 (HLA A0201 (human)): 73 nM; IC50 (HLA A0202 (human)): 45 nM; IC50 (HLA A0203 (human)): 21 nM; IC50 (HLA A0206 (human)): 100 nM; IC50 (HLA A6802 (human)): 1780 nM |
| LQDKILDHY (modifications not checked) [HPV45.E2.17] | – | – | 32 | – | 836 | IC50 (HLA A2601 (human)): 5000 nM |
| VYQFAFKDL (modifications not checked) [HPV45.E6.44] | 1.1 | 4 | – | – | 165 | – |
| TLEKLTNTGLY (modifications not checked) [HPV18.E6.89] | – | – | – | – | – | IC50 (HLA A2601 (human); [1]): 265 nM; IC50 (HLA A3002 (human); [1]): 476 nM |
| VVFIYIPLF (modifications not checked) [HPV31.E5.64] | 108 | 276 | – | 302 | 268 | – |
| AFTDLTIVY (modifications not checked) [HPV31.E6.46] | – | – | 31 | 36 | 71 | – |
| PYLHSRLVVF (modifications not checked) [HPV31.E1.557] | 2.8 | 38.7 | – | 4360 | 2230 | – |
| YYITETGIW (modifications not checked) [HPV45.E2.144] | 2 | 8.5 | – | – | – | – |
| FVYIPLFLI (modifications not checked) [HPV16.E5.66] | – | – | – | – | – | IC50 (HLA A0201 (human)): 206 nM; IC50 (HLA A0202 (human)): 323 nM; IC50 (HLA A0203 (human)): 63 nM; IC50 (HLA A0206 (human)): 59 nM; IC50 (HLA A6802 (human)): 251 nM |
| RQMNMSQWIK (modifications not checked) [HPV45.E1.411] | – | – | – | – | – | IC50 (HLA A0301 (human)): 15 nM; IC50 (HLA A1101 (human)): 11 nM; IC50 (HLA A3101 (human)): 45 nM; IC50 (HLA A6801 (human)): 2560 nM |

From patent US20100272750A1
